Source: article PMC1976452
Like-named read-outs stand apart in the source and are kept apart here.

B1: H1 RNA hairpin control (structured_RNA)
RNA: GGACUUCGGUCC
B2: P8 ssDNA control (ssDNA)
DNA: GTCTCTTGTGTGACTCTGGTAAC

Legend:
[1] = target: T1, thrombin (Amersham Biosciences) (human, UniProt P00734;P00734 315-363;364-622); assay: filter binding
[2] = target: T1, thrombin (Amersham Biosciences); assay: filter binding; remark: listed apart in the source

Row | Binder | binding result [1] | binding result [2]
1 | B1 | no binding | –
2 | B2 | – | no binding
